The values below come from patent publication US20220047631A1 (UNIVERSITY OF CHICAGO, published 2022).

In test [1] the target is T1, Tn-OTS8 peptide ERGT(GalNAc)KPPLEELSGK-biotin, monomer (murine).
T1 construct: also called glycosylated OTS-8 peptide (biotinylated)
T1 peptide: ERGT(GalNAc)KPPLEELSGK(Biotin)
Nature of the test: flow cytometry of CAR-transduced mouse T cells with biotinylated peptide. (In general: In flow cytometry, cells or beads pass a laser one at a time.)

The target of test [2] is T2, Tn-OTS8 peptide KAPLVPTQRERGT(GalNAc)KPPLEELSTSATSDHDH (murine, GalNAc (Tn) on the Thr of ...RERGT(GalNAc)KPP...).
T2 construct: Coated on ELISA plates at 2.5 or 5 µg/ml; also called OTS8p with Tn
T2 peptide: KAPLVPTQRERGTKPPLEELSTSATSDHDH
Nature of the test: ELISA, peptide coated at 2.5 or 5 µg/ml, biotinylated scFv, streptavidin-HRP. A general note: An ELISA detects its analyte on a solid surface through an enzyme-linked reagent.

In test [3] the target is T1, Tn-OTS8 peptide …. Nature of the test: yeast display, flow cytometry titration with peptide.
Test [4] has as its target T1, Tn-OTS8 peptide …. Nature of the test: yeast display titration compared with a literature value.
Test [5] concerns the target T1, Tn-OTS8 peptide …. Nature of the test: yeast display dissociation compared with a literature value. How it is done: (§1) FIG. 21. […] (B) To determine their off-rates, each mutant was stained with 30 nM biotinylated Tn-OTS8 peptide. After washing, the mutants were stained with 100 nM Tn-OTS8 peptide (not biotinylated). The decrease in binding to biotinylated Tn-OTS8p by each mutant was measured over a period of 4 hours, to calculate approximate half-lives (t_{1/2}) and off-rates (koff). […] See Brooks et al., Proc. Natl. Acad. Sci. (USA) 107(22):10056-10061 (2010).

Test [6] deals with T1, Tn-OTS8 peptide …. Nature of the test: yeast display, 30 nM biotinylated peptide chased with 100 nM unbiotinylated peptide over 4 hours. The protocol:
as §1

In test [7] the target is T1, Tn-OTS8 peptide …. Description: flow cytometry titration of the yeast-displayed mutant with biotinylated OTS8p, 0.1 to 100 nM [A].
In test [8] the target is T1, Tn-OTS8 peptide …. Nature of the test: dissociation on yeast: 30 nM biotinylated Tn-OTS8 peptide, wash, chase with 100 nM non-biotinylated peptide; % binding over 4 hours [B]. How it is done: as §1
Test [9] concerns the target T1, Tn-OTS8 peptide …. Nature of the test: dissociation on yeast: 30 nM biotinylated Tn-OTS8 peptide, wash, chase with 100 nM non-biotinylated peptide; sheet adds: 30-fold slower than 237mAb:OTS8p [B]. The protocol: as §1
Test [10] has as its target T1, Tn-OTS8 peptide …. Nature of the test: flow cytometry of yeast-displayed clone with 1 or 10 nM Tn-OTS8 peptide. The protocol:
FIG. 20. […] 10 clones were isolated from Tn-OTS8 peptide-sorted post-sort-4 and post-sort-5 populations. Each clone was stained with 1 or 10 nM Tn-OTS8 peptide and analyzed by flow cytometry. The mean fluorescence units (MFUs) of each clone is plotted on Y-axis. […] In addition, plasmid DNA was isolated from each clone to determine the kind of mutation(s), and frequency of mutation(s) (n). The sequence of wild-type (wt) and mutated residues is shown in black and maroon, respectively.

Test [11] concerns the target T1, Tn-OTS8 peptide …. Description: Table 3, column 'Tn-linked antigen' recognized by the scFv.
For a further test, the target named is T3, Tn-OTS8 peptide tetramer (murine, UniProt P22629 37-163 (Streptomyces avidinii entry), limits assumed, PE label; GalNAc (Tn) on Thr 4; C-terminal Lys-biotin).
T3 construct: How the tetramer was made is not spelled out; streptavidin-PE is the reagent named with it; also called Tn-OTS8p tetramer; tetramers of glycosylated OTS-8 peptide
Nature of the test: flow cytometry of yeast-displayed clone with 10 nM OTS8p tetramer [B].

For the next test, the target named is T4, GTKA.
T4 construct: truncation series from GTKAAAA; also called Tn-peptide GTKA, immobilized (C-terminal truncation)
T4 peptide: Biotin-APLVPTQRERGT(GalNAc)KA
Description: ELISA; x axis = coating concentration of the peptide; 237Ab fixed at 10 µg/ml [left].

A further test addresses T5, GTK.
T5 construct: truncation series from GTKAAAA; also called Tn-peptide GTK, immobilized (C-terminal truncation)
T5 peptide: Biotin-APLVPTQRERGT(GalNAc)K
Described as above.

Where no end group is shown, it is not given here. The star is where a group is joined. GalNAc = N-acetyl galactosamine (O-linked to Thr, Tn antigen); Biotin = O=C1N[C@H]2[C@H](CS[C@H]2CCCCC(=O)*)N1

T3 sequence (P22629 37-163 limits assumed): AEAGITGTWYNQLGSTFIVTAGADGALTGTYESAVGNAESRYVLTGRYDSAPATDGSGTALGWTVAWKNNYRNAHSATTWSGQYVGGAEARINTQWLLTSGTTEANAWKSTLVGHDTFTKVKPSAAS

B1: 237-LGQ-CAR on transduced C57BL/6 mouse T cells (other)
scFv: DIQLTQSPLSLPVSLGDQASISCRSSQSLVHSNGNTYLHWYLQKPGQSPKLLIYKVSNRFSGVPDRFSGSGSGTDFTLKISSVEAEDLGVYFCSQSLGQPTFGGGTKLEIKGGGGSGGGGSGGGGSQVQLQQSGGGLVQPGGSMKIFCAASGFTFSDAWMDWVRQSPEKGLEWVAEIRNKANNHETYYAESVKGRFTITRDDSKSRMSLQMNSLRAEDTGIYYCSGGKVRNAYWGQGTTVTVSS
notes: also called CAR with dual specificity (LGQ); not shown: hinge, CD28 and CD3zeta parts of the CAR
Consider B1, for which the binding result in test [1] was “binds”.

B2: soluble 237 scFv monomer (biotinylated) (scFv)
scFv: DIQLTQSPLSLPVSLGDQASISCRSSQSLVHSNGNTYLHWYLQKPGQSPKLLIYKVSNRFSGVPDRFSGSGSGTDFTLKISSVEAEDLGVYFCSQSTHVPTFGGGTKLEIKGGGGSGGGGSGGGGSQVQLQQSGGGLVQPGGSMKIFCAASGFTFSDAWMDWVRQSPEKGLEWVAEIRNKANNHETYYAESVKGRFTITRDDSKSRMSLQMNSLRAEDTGIYYCSGGKVRNAYWGQGTTVTVSS
modifications: biotin on the C-terminal Avitag
notes: also called monomeric scFv; b237; not shown: N-terminal 6xHis tag; C-terminal Avitag
As usually defined, the Kd is the constant that tells how readily two partners part at equilibrium. A low value points to higher affinity. B2 registered a Kd in [2] of 5 nM.

B3: yeast-displayed 237 scFv WE mutant (scFv)
scFv: DIQLTQSPLSLPVSLGDQASISCRSSQSLVHSNGNTYLHWYLQKPGQSPKLLIYKVSNRFSGVPDRFSGSGSGTDFTLKISSVEAEDLGVYFCSQSTWEPTFGGGTKLEIKGGGGSGGGGSGGGGSQVQLQQSGGGLVQPGGSMKIFCAASGFTFSDAWMDWVRQSPEKGLEWVAEIRNKANNHETYYAESVKGRFTITRDDSKSRMSLQMNSLRAEDTGIYYCSGGKVRNAYWGQGTTVTVSS
notes: not shown: yeast display carriers: N-terminal Aga2 and HA tag, C-terminal c-myc tag
For orientation: koff means the rate constant with which the complex falls apart. A high value points to fast dissociation. Take B3: the Kd is approximately 5 nM in [3] and 4.3 nM in [7]. Also, the “fold higher affinity than the 237 IgG Fab domain (literature SPR)” value in test [4] was approximately 30 fold. The “fold slower off-rate than the 237 monoclonal antibody Fab with OTS8 peptide (literature)” value in [5] came to 30 fold. Also, in test [6], the “half-life (t1/2)” value is approximately 30 min. In [8], this molecule came in with a t1/2 of 27 min. This molecule also showed a koff in test [9] of 0.00042 s⁻¹.

B4: -VWE (wt: STHV) (scFv)
scFv (VL-linker-VH): DIQLTQSPLSLPVSLGDQASISCRSSQSLVHSNGNTYLHWYLQKPGQSPKLLIYKVSNRFSGVPDRFSGSGSGTDFTLKISSVEAEDLGVYFCSQSVWEPTFGGGTKLEIKGGGGSGGGGSGGGGSQVQLQQSGGGLVQPGGSMKIFCAASGFTFSDAWMDWVRQSPEKGLEWVAEIRNKANNHETYYAESVKGRFTITRDDSKSRMSLQMNSLRAEDTGIYYCSGGKVRNAYWGQGTTVTVSS
notes: isolated after sort 5 with Tn-OTS8p; also called clone O5-8
For B4, in [10], the binding result is recorded as “binds”.

B5: T-WA (wt: STHV) (scFv)
scFv (VL-linker-VH): DIQLTQSPLSLPVSLGDQASISCRSSQSLVHSNGNTYLHWYLQKPGQSPKLLIYKVSNRFSGVPDRFSGSGSGTDFTLKISSVEAEDLGVYFCSQTTWAPTFGGGTKLEIKGGGGSGGGGSGGGGSQVQLQQSGGGLVQPGGSMKIFCAASGFTFSDAWMDWVRQSPEKGLEWVAEIRNKANNHETYYAESVKGRFTITRDDSKSRMSLQMNSLRAEDTGIYYCSGGKVRNAYWGQGTTVTVSS
notes: isolated after sort 4 with Tn-OTS8p; also called clones O4-1, O4-2, O4-9
Turning to B5, the binding result in test [10] is reported as “binds”.

B6: yeast-displayed 237 scFv LGQ mutant (scFv)
scFv: DIQLTQSPLSLPVSLGDQASISCRSSQSLVHSNGNTYLHWYLQKPGQSPKLLIYKVSNRFSGVPDRFSGSGSGTDFTLKISSVEAEDLGVYFCSQSLGQPTFGGGTKLEIKGGGGSGGGGSGGGGSQVQLQQSGGGLVQPGGSMKIFCAASGFTFSDAWMDWVRQSPEKGLEWVAEIRNKANNHETYYAESVKGRFTITRDDSKSRMSLQMNSLRAEDTGIYYCSGGKVRNAYWGQGTTVTVSS
notes: as for B3
As for B6, in test [11], the binding result is “binds”.

B7: MLV (wt CDRL2: KVS) (scFv)
scFv (VL-linker-VH): DIQLTQSPLSLPVSLGDQASISCRSSQSLVHSNGNTYLHWYLQKPGQSPKLLIYMLVNRFSGVPDRFSGSGSGTDFTLKISSVEAEDLGVYFCSQSTHVPTFGGGTKLEIKGGGGSGGGGSGGGGSQVQLQQSGGGLVQPGGSMKIFCAASGFTFSDAWMDWVRQSPEKGLEWVAEIRNKANNHETYYAESVKGRFTITRDDSKSRMSLQMNSLRAEDTGIYYCSGGKVRNAYWGQGTTVTVSS
Regarding B7, the binding result with Tn-OTS8 peptide tetramer is “no binding (tested: 10 nM)”.

B8: yeast-displayed 237 scFv TNGK mutant (scFv, not shown: large carriers; small tags and cut ends)
scFv: DIQLTQSPLSLPVSLGDQASISCRSSQSLVHSNGNTYLHWYLQKPGQSPKLLIYKVSNRFSGVPDRFSGSGSGTDFTLKISSVEAEDLGVYFCSQTNGKPTFGGGTKLEIKGGGGSGGGGSGGGGSQVQLQQSGGGLVQPGGSMKIFCAASGFTFSDAWMDWVRQSPEKGLEWVAEIRNKANNHETYYAESVKGRFTITRDDSKSRMSLQMNSLRAEDTGIYYCSGGKVRNAYWGQGTTVTVSS
For the molecule B8, the binding result in test [11] is listed as “binds”.

B9: 237-TNGK-CAR on transduced C57BL/6 mouse T cells (other)
scFv: DIQLTQSPLSLPVSLGDQASISCRSSQSLVHSNGNTYLHWYLQKPGQSPKLLIYKVSNRFSGVPDRFSGSGSGTDFTLKISSVEAEDLGVYFCSQTNGKPTFGGGTKLEIKGGGGSGGGGSGGGGSQVQLQQSGGGLVQPGGSMKIFCAASGFTFSDAWMDWVRQSPEKGLEWVAEIRNKANNHETYYAESVKGRFTITRDDSKSRMSLQMNSLRAEDTGIYYCSGGKVRNAYWGQGTTVTVSS
notes: also called CAR with dual specificity (TNGK); not shown: hinge, CD28 and CD3zeta parts of the CAR
Regarding B9, in test [1], the binding result is reported as “binds”.

B10: --WG (wt: STHV) (scFv)
scFv (VL-linker-VH): DIQLTQSPLSLPVSLGDQASISCRSSQSLVHSNGNTYLHWYLQKPGQSPKLLIYKVSNRFSGVPDRFSGSGSGTDFTLKISSVEAEDLGVYFCSQSTWGPTFGGGTKLEIKGGGGSGGGGSGGGGSQVQLQQSGGGLVQPGGSMKIFCAASGFTFSDAWMDWVRQSPEKGLEWVAEIRNKANNHETYYAESVKGRFTITRDDSKSRMSLQMNSLRAEDTGIYYCSGGKVRNAYWGQGTTVTVSS
notes: isolated after sort 4 with Tn-OTS8p; also called clone O4-3
Turning to B10, the binding result in test [10] was “binds”.

B11: 237 monoclonal antibody (antibody, V domains shown)
VH: QVQLQQSGGGLVQPGGSMKIFCAASGFTFSDAWMDWVRQSPEKGLEWVAEIRNKANNHETYYAESVKGRFTITRDDSKSRMSLQMNSLRAEDTGIYYCSGGKVRNAYWGQGTTVTVSS
VL: DIQLTQSPLSLPVSLGDQASISCRSSQSLVHSNGNTYLHWYLQKPGQSPKLLIYKVSNRFSGVPDRFSGSGSGTDFTLKISSVEAEDLGVYFCSQSTHVPTFGGGTKLEIK
notes: Murine monoclonal IgG
For B11, the binding result in the test with GTKA and in the test with GTK was “no binding (tested: 1000 nM peptide for coating)” each time.
